Two molecules from patent US20240343810A1 (published 2024) can be followed below.

The target in assay [1] is T1, mouse ICOS-mFc (Chimerigen) (mouse, UniProt Q9WVS0 21-141, limits assumed).
T1 construct: Bought; also called recombinant mouse ICOS protein; mICOS; not shown: mouse Fc of the bought fusion
T1 sequence: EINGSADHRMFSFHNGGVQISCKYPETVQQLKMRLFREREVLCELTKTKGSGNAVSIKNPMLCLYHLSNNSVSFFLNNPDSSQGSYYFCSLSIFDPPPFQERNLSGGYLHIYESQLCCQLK
As to the kind of experiment: HTRF, mouse ICOS-mFc, competitor mouse B7-H2-Alexa 647, mean as told in the text (table prints 0.37).

Assay [2] deals with T2, Biotinylated human ICOS protein (human, UniProt Q9Y6W8 21-140, limits assumed, biotinylated (sites not given)).
T2 construct: Captured on the NLC chip in the avidity SPR
T2 sequence: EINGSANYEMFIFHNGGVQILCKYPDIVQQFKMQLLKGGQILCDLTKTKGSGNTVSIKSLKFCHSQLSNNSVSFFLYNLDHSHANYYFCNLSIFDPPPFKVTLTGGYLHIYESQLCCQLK
Briefly: SPR ProteOn avidity format, biotinylated human ICOS on NLC chip, antibody analyte; apparent KD from equilibrium, 25 C. On the procedure: Biotinylated human ICOS protein diluted at 7.5 μg/mL in running buffer (1× HBS-EP+ Buffer Technova, cat. No. H8022) was captured on a NLC sensor chip (Bio-Rad, cat No 1765021). The surface was then blocked using biocytin (Sigma Aldrich, cat No B1758) at 1 mg/mL.
The assay was carried out at 25° C.
The buffer injection (i.e. 0 nM) was used to double reference the sensorgrams. The analysis was carried out using the equilibrium model inherent to the ProteOn's analysis software for each mAb² construct.

B1: STIM003 (antibody, human IgG1, kappa)
heavy: not shown
light: EIVLTQSPGTLSLSPGERATLSCRASQSVSRSYLAWYQQKRGQAPRLLIYGASSRATGIPDRFSGDGSGTDFTLSISRLEPEDFAVYYCHQYDMSPFTFGPGTKVDIKRTVAAPSVFIFPPSDEQLKSGTASVVCLLNNFYPREAKVQWKVDNALQSGNSQESVTEQDSKDSTYSLSSTLTLSKADYEKHKVYACEVTHQGLSSPVTKSFNRGEC
notes: Anti-ICOS monospecific antibody, tested as human IgG1; also called STIM003 monoclonal IgG1 antibody
A word on the IC50: it is the concentration at which inhibition is half-maximal. The low end stands for higher potency, the high end for lower potency. With B1, the IC50 in assay [1] worked out at 0.12 nM.

B2: STIM001 (antibody, human IgG1, kappa)
heavy: not shown
light: DIVMTQSPLSLPVTPGEPASISCRSSQSLLHSNEYNYLDWYLQKPGQSPQLLIFLGSNRASGVPDRFSGSGSGTDFTLKITRVEAEDVGIYYCMQSLQTPLTFGGGTKVEIKRTVAAPSVFIFPPSDEQLKSGTASVVCLLNNFYPREAKVQWKVDNALQSGNSQESVTEQDSKDSTYSLSSTLTLSKADYEKHKVYACEVTHQGLSSPVTKSFNRGEC
notes: Anti-ICOS monospecific antibody, tested as human IgG1; also called STIM001 monoclonal IgG1 antibody
With B2, the Kd in assay [2] was found to be 57.1 nM.
